Measured values published in the DeepSol protein solubility set.

Experiment: soluble on expression in E. coli; label from the status in PepcDB or PDB records
In the case of “MAHHHHHHSLITTYKTITSSTQAEFKDKGSRFIAFAYPIRTLADVKKYLDPLKEEHHKARHWCYAYRLGVDGMQFRANDDGEPSGSAGRPILGQIDSVGITDVLVVVVRYFGGTLLGVPGLIHAYKEATAQALAVAEVVEKNIEKTVWLKCEYPFLNEAIRIAKQYQADILERDLQLDCRLTVSLSLVNYEACVAAWKNTRQIEVNTEKPFEEG”, the “soluble on expression in E. coli” value is reported as “soluble”.
In the case of “MGSDKIHHHHHHMGKPTGFMEYDRCEAASVEPKERIKNFNEFHVFLSKENQQKQAARCMDCGVPFCQSGMTIAGMTSGCPLHNLVPEWNDLVYTGNWEQAYNRLHKTNNFPEFTSRVCPALCEKACTCGHWGSPVSVRDNEHGIIETAYANGYAAPKPPKVRTGKKVAIIGSGPSGLAAADQLNQRGHDVTVYEREDRVGGLLMYGIPNMKLDKSIIDRKVNIMKEEGIHFVTGCDVGKDIKPAELYKKYDRVILCCGAKNPRDIKADGRDAKGIYFAVDYLTQNTKSLLNSNLTDGKFVSAKGKNVVIIGGGDTGNDCVGTAIRQGAKSVTQLEMMPCPPTERAANNPWPQWPKVLKTDYGQEEAIAVFGHDPRTYKTTVKEFHKDKNGNLKELTIVSLESKKDEKTGRFMMVPVEGSEKKLPAELVLIAAGFLGTESYVAKAFGVELNARTNVSTQEGHYATNVKNVYVAGDNHRGQSLVVWAIREGREAAREVDESLMGYSYLSVQ”, the “soluble on expression in E. coli” value is reported as “not soluble”.
With “MESLAAKVVERLNRAESAAELRFCHDELARELRRCLAPEQMKQLAGDVVCVHEAILRRAFFLAERETMKRSVGIRPPAWCWYVMGSIGRREPTIWTDQDHGILFDCPEEEEAACYEFIRHMAAVGVDMLHEAGYPYCSGYVMATNKRWAQSVRGWEQQLSSYLDSGWPNDIRFLLIAMDMRPLYGETELAEEGRRMLFSAVAKRPPLLAVRPAWVRRYRVKVPNGGWRAPTVS” the “soluble on expression in E. coli” value was “not soluble”.
With “MTGDKEIITMTFKIWQIGLHLQQQEAAAVAIVRGAKECFLQRWWRLPLAHDIIKDGRIVDAQQLAKTLLPWSRELPQRHHIMLAFPASRTLQRSFPRPSMSLGEREQTAWLSGTMARELDMDPDSLRFDYSEDSLSPAYNVTAAQSKELATLLTLAERLRVHVSAITPDASALQRFLPFLPSHQQCLAWRDNEQWLWATRYSWGRKLAVGMTSAKELAAALSVDPDSVAICGEGGFDPWEAVSVRQPPLPPPGGDFAIALGLALGKAY” the “soluble on expression in E. coli” value was “not soluble”.
In the case of “MGSDKIHHHHHHMNVLNDSVDDTVQKKVAFFLPTLNIGGIERVFITYANYLIDKKYNIYFILCKRRGELLSLLDSNIKLYHLGNVQLKFSFLKLRQSLKEIQPDVIVSGGDFPNLILIVSSLGLKKVPKIIISQHNYYNVETRRLGWWAYGTCFFMKKIYPKADKIIAVSDGIREFLIKKIHISADRIIKLPNPIDIKGIKEKSLELLDITLPDRYILFVGRLSYVKNLFFLLDAFEMGKLDNNSLVIVGDGEMRNALMKKAKKMHKADNIIFLGAMENPLPILKKAQLLVLPSFSEAYPTILLEALCLYIPVVSTPTKGAKEILHNVSGTYISTDCYNIEEFARLMERGVKERISHKVIDDKIGLNSIENIGLRIQREIIEDNRL”, the “soluble on expression in E. coli” value is reported as “not soluble”.
In the case of “IKVILITGMPGSGKSEFAKLLKERGAKVIVMSDVVRKRYSIEAKPGERLMDFAKRLREIYGDGVVARLCVEELGTSNHDLVVFDGVRSLAEVEEFKRLLGDSVYIVAVHSPPKIRYKRMIERLRSDDSKEISELIRRDREELKLGIGEVIAMADYIITNDSNYEEFKRRCEEVTDRVLK”, the “soluble on expression in E. coli” value is reported as “soluble”.
For “MSLDLHYKQFLLLNLYRQDKCLLAEVLLKDSSEFSFGVKFFNYGQLIAYIDSLNSNVYNASITENSFFMTFFRSYIIENTSHKNIRFFLENVECPFYLRHNEVQEFMFAMTLFSCGNFDQSYEIFQLHDYPEAINDKLPTFLEDLKSENYHGDSIWKDLLCTFTVPYRHSAFYYQLSLLFDRNNSQEFALKCISKSAEYSLKEIQIEELQDFKEKQHIHYLNLLIHFRMFEEVLDVLRLGHECLSDTVRTNFLQLLLQEDIYSRDFFSTLLRLCNAHSDNGELYLRTVDIKIVDSILSQNLRSGDWECFKKLYCFRMLNKSERAAAEVLYQYILMQADLDVIRKRKCYLMVINVLSSFDSAYDQWILNGSKVVTLTDLRDELRGEGHHHHHH”, the “soluble on expression in E. coli” value was “not soluble”.
In the case of “SETRSPGLNNMKPQSLQLVLEEQVLALQQQMAENQAASWRKLKNSQEAQQRQATLVRKLQAKVLQYRSWCQELEKRLEATGGPIPQRWENVEEPNLDELLVRLEEEQQRCESLAEVNTQLRLHMEKADVVNKALREDVEKLTVDWK”, the “soluble on expression in E. coli” value is reported as “soluble”.
For “MSGLLNFGVPKGSLENATVELFRKAGWQISISSRSYFPGVDDDEMNCKLIRPQEMGKYVERGTIDAGIAGRDWVRENESDVVEVCEMVYSKVSRRPARWVLVVTRDSAVQKPEDLHGATISTELVGFTKRYFAERNIPVTVEFSWGAT”, the “soluble on expression in E. coli” value was “not soluble”.
For “MEGLTPEMQREAEALRREWETNPRWKGVRRDYRPEDVVRLRPSVMVEYTLAKRGAEKLWKLLHERPYVHTFGAYTGAMAVEMVRAGLEAIYLSGWQVAADANLAWQTYPDQSLYPYNSVPQIVKRINNALMRADQVERIEGRVTRDWYVPIVADAEAGFGGALNVFELTKAMIEAGAAGIHYEDQLASEKKCGHLGGKVLVPTGQHIRTLQAARLAADVMGVPTVIIARTDAEAATLITSDIDERDKPFILPDERTPEGFYRFKNGIEAGIARALAYAPYADVIWMETSKPDLEEARKFAEAVKKEFPDKLLAYNLSPSFNWKKFLDDETIAKFNRELGEMGYKFQFITLAGWHALNYYIWELAKGYKERGMPAFVELQQKEFAAQKEGFTAVKHQREVGAGYFDEVVLALTQGQASTLALKGSTEEAQFNEPVH”, the “soluble on expression in E. coli” value was “soluble”.
With “MGSDKIHHHHHHGSSESAEYQQTNHYNTPKGFMNDIQTIFKGSDGYYHMYYLLNSNYKLANDGTEWYHVRTKDWEHFENLGVAIPKFVNGWSAVATGSIFQNSNQFFKDLPTSAIVAYFTSYTDTGQHQYVAYSLDNGSSYQPYNNGKPVMISQTKEQNARDPYIWYDSNSKRLMMYLAEGDKIGIYASSDGKNWAYQGATVLNQYTLGGKDLGLVECPNLKTFYDSATNTTKHVLFFGANGYQYGSTTGTYYMIGHLDTQGNFVPEQNAERLDQGSDYYGANFYQESDCVVKSIAWMGNWDYLQGQILDDQGQESKHLGSVSSARDITMVKRDDKYVLESYLKNNNSRTNTVSYQSNADTAKLADDGYHKTLLSVSRWHSQELSLKFQANAATLNGHIRLIFKQADAQVSLDYNTDNGYYEVKRTSSKIIGSQKVNYERSYVVDSHWNGQKELNIYLVADKSSLEFALPNGQTYSMVKLSTASDMDIVIETSGSNRLQADLANLET” the “soluble on expression in E. coli” value was “not soluble”.
For “MSLSEGPKKAGVLGSPIAHSRSPQLHLAAYRALGLHDWTYERIECGAAELPVVVGGFGPEWVGVSVTMPGKFAALRFADERTARADLVGSANTLVRTPHGWRADNTDIDGVAGALGAAAGHALVLGSGGTAPAAVVGLAELGVTDITVVARNSDKAARLVDLGTRVGVATRFCAFDSGGLADAVAAAEVLVSTIPAEVAAGYAGTLAAIPVLLDAIYDPWPTPLAAAVGSAGGRVISGLQMLLHQAFAQVEQFTGLPAPREAMTCALAALDEGHHHHHH”, the “soluble on expression in E. coli” value was “soluble”.
With “AHHHHHHGSKVVIVGNGPGGFELAKQLSQTYEVTVIDKEPVPYYSKPMLSHYIAGFIPRNRLFPYSLDWYRKRGIEIRLAEEAKLIDRGRKVVITEKGEVPYDTLVLATGARAREPQIKGKEYLLTLRTIFDADRIKESIENSGEAIIIGGGFIGLELAGNLAEAGYHVKLIHRGAMFLGLDEELSNMIKDMLEETGVKFFLNSELLEANEEGVLTNSGFIEGKVKICAIGIVPNVDLARRSGIHTGRGILIDDNFRTSAKDVYAIGDCAEYSGIIAGTAKAAMEQARVLADILKGEPRRYNFKFRSTVFKFGKLQIAIIGNTKGEGKWIEDNTKVFYENGKIIGAVVFNDIRKATKLEKEILDFYS” the “soluble on expression in E. coli” value was “soluble”.
With “GPGSMSSSNAQAELGPGGSTHSIELGRLIFQGAESKVYCCSFYGALALCKHRFVKRYRDPSLDERLRTQRTRREARALERCVKKGIRAPRLLGADYINTFLVMSYEAGPTVKEALDIEHAAYMQQVSKGKSTSAQQQQPQTTPSPSALGNAAPSPVTAALLQSIGVVVARLHNANIVHGDLTTSNFICTCDGLEAAAPGADGADALASSSPVLPTAEDIVVLDFGLISEKYSTEERAVDLYVLERAIASTHPYLSSFASDIILEGYRSAADPKKGEEALRRLEAVRARGRKRTMIG” the “soluble on expression in E. coli” value was “not soluble”.
With “AAPFDVTAPQEPVLALVGSDAELTCGFSPNASSEYMELLWFRQTRSTAVLLYRDGQEQEGQQMTEYRGRATLATAGLLDGRATLLIRDVRVSDQGEYRCLFKDNDDFEEAAVYLKVAAVGSDPQISMTVQENGEMELECTSSGWYPEPQVQWRTGNREMLPSTSESKKHNEEGLFTVAVSMMIRDSSIKNMSCCIQNILLGQGKEVEISLPAPFVPRLTPW” the “soluble on expression in E. coli” value was “not soluble”.
In the case of “MSLKRVSEMKFCFCGEKKDSRVKPLRVAIIGAGPAGLSAACSLACDGFDVHVYDKMPEPGGMVAFGIPEWRIPISKVRQAVKEIEELGVVFHMRTKVVYDSPKELGDEFAERFVSLEKLMKEYDAILIATGAWRPRILDIPGKELKGVENALQLLLRINLARIGYLPQTKMPSFEGKRVVVIGAGYTAVDVAKEAKLLGAKSVTIAYRRSLQDSYAKNEFKKLIKEGVKFLEYVTPVRIFGDENVREVEFAKTKVVRGSVITTEEKRTIPADVIIFAIGQIPTNPIKEVLCSNEDILKNAGIFFAGDVISPRNIGTAIREGRKVAEEIKAWLTEHAFLNIRLSYPVSLRDISKSATEGHHHHHH”, the “soluble on expression in E. coli” value is reported as “soluble”.
With “MAHHHHHHMRSNRNGSHSFFFLSVYSWFIFSPFEVFDDEYFLVDEKEKYVFLFVFVFMEEKRICVVVFPVPKVHAAAEIVIVDAVLFPHAADTDELKLCHF” the “soluble on expression in E. coli” value was “not soluble”.
In the case of “QGFSQEKYAHNALNRRGFIELKSQARGQISTGGQVLAESYQDEEGFYQRRYVTNPAIYGPIEGYLSDIYGASGMESNLNGVLSGTDSSVSVRRWTDELLGRKHSGANVELTLLPQVQEVAYNQMANAGYEGAVVAIKPSTGEILAMASTPSYDPSAIVNPDTAEQTWAALNADPGNPLLNHATQETLPPGSTFK”, the “soluble on expression in E. coli” value is reported as “not soluble”.
For “MIPSQISFNTLPVNATYASETTVDTQKFSDILYSAGCSLKDMAYLSRCLASIHPTLAKNIYETENLSDQKLLHIDCRSTNEIKINIFFGQQREGLIEINSDTVIFSILSSLIDSAISKFQHQIPVNGSVNRELLYEDYTD”, the “soluble on expression in E. coli” value was “not soluble”.
For “MGSDKIHHHHHHMALFESYDRRIDHINAVLNEYGINGIEDAKAICDAKGIDPYTMCKETQPICFENACWAYVVGAAIAIKKGCTNAAEAAEAIGIGLQAFCIAGSVADDRKVGIGHGNLAARLLREETKCFAFLAGHESFAAAEGAIKIAEMANKVRKEPLRVILNGLGKDAAKIISRINGFTYVQTQFDYMTGEVNVIEEKAYSNGLRAKVKCYGADDVREGVAIMRKEGVDVSITGNSTNPTRFQHPVAGTYKKECMENGHPYFSVASGGGTGRTLHPDNMAAGPASYGMTDTMGRMHGDAQFAGSSSVPAHVEMMGFLGMGNNPMVGATVAVAVAIEEAMKK”, the “soluble on expression in E. coli” value was “not soluble”.
In the case of “MKALARFGKAFGGYKMIDVPQPMCGPEDVVIEIKAAAICGADMKHYNVDSGSDEFNSIRGHEFAGCIAQVGEKVKDWKVGQRVVSDNSGHVCGVCPACEQGDFLCCTEKVNLGLDNNTWGGGFSKYCLVPGEILKIHRHALWEIPDGVDYEDAAVLDPICNAYKSIAQQSKFLPGQDVVVIGTGPLGLFSVQMARIMGAVNIVVVGLQEDVAVRFPVAKELGATAVVNGSTEDVVARCQQICGKDNLGLVIECSGANIALKQAIEMLRPNGEVVRVGMGFKPLDFSINDITAWNKSIIGHMAYDSTSWRNAIRLLASGAIKVKPMITHRIGLSQWREGFDAMVDKTAIKVIMTYDFDE”, the “soluble on expression in E. coli” value is reported as “soluble”.
